{"source": "paper PMC9852560", "origin": "cited, not measured here", "target": "laminin gamma1 (UniProt P02468)", "sequence (P02468 34-1607)": "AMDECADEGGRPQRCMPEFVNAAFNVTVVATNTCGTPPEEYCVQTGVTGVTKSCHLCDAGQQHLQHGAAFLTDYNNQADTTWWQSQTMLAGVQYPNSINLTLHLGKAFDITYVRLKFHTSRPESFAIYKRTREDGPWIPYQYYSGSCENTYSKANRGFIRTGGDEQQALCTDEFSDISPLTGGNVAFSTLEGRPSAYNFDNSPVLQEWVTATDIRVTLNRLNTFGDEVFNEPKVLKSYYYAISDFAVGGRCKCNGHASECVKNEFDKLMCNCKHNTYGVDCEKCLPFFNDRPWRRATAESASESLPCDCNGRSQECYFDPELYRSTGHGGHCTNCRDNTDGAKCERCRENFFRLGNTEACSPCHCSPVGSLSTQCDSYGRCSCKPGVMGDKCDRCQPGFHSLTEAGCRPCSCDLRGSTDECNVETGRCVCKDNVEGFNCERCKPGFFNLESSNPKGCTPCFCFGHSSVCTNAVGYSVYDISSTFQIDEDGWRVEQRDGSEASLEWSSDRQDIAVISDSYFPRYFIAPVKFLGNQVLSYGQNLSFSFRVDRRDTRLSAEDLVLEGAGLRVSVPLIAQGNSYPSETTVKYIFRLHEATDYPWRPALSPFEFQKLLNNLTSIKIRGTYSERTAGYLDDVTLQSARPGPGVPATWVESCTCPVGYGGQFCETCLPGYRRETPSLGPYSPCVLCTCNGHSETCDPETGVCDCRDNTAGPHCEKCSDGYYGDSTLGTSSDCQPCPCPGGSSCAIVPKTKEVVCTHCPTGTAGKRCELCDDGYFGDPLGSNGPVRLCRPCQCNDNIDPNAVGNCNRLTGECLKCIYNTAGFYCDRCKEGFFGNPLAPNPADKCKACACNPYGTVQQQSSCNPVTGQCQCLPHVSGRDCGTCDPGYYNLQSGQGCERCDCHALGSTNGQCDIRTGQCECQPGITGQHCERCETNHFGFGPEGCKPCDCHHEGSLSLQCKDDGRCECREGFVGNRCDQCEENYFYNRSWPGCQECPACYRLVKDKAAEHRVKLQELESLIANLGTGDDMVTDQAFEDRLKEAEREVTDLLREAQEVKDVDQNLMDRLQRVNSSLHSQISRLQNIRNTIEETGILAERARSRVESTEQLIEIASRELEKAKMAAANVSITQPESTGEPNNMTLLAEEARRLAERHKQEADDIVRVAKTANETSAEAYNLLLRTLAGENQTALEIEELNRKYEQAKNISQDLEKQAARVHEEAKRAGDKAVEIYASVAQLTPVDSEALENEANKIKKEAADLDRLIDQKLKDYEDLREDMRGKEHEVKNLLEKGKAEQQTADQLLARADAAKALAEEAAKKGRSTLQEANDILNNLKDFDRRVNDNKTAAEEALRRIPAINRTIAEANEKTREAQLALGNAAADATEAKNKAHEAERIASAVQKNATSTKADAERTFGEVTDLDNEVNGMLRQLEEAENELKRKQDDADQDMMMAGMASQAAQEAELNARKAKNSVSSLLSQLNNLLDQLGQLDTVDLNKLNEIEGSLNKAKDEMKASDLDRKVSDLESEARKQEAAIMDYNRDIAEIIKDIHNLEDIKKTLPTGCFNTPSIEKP", "experiment": "SEC", "note": "pKd: −log10 of the molar value.", "data": [{"substance": "laminin beta1 (from UniProt P02469)", "values": [{"measurement": "pKd", "value": 4.68}]}]}
